Laboratory results taken from publication PMC10593477 (Frontiers in Oncology, 2023).

Experiments:
[1] = target: T1, recombinant uPAR-Biotin (human, UniProt Q03405 23-305, biotin); assay: BLI; BLItz; streptavidin biosensors coated with 16.7 μg/mL recombinant uPAR-Biotin; 400nM, 200nM and 100nM of VH, VH-Fc, DbTE, association 2 min; dissociation in DPBS 4 min; conditions: both partners purified
T1 construct: May be one of the bought proteins (uPAR-His or uPAR-Fc) after biotinylation

[2] = target: T2, Human uPAR-His recombinant protein (human, UniProt Q03405 23-305); assay: ELISA; uPAR-His coated at 50 ng/well at 4°C overnight; 3-fold serially diluted binders 1 hour at 37°C; VH detected by anti-FLAG M2-HRP, VH-Fc or DbTE by HRP goat anti-human IgG1 Fc; conditions: both partners purified
T2 construct: also called recombinant human uPAR; CD87; source: bought: R&D system

[3] = target: the molecule itself; assay: SEC; Superdex 200 Increase 10/300 GL; 200 μg of filtered antibody; DPBS, 0.5 mL/min; size from molecular weight calibration curves

T2 sequence (Q03405 23-305): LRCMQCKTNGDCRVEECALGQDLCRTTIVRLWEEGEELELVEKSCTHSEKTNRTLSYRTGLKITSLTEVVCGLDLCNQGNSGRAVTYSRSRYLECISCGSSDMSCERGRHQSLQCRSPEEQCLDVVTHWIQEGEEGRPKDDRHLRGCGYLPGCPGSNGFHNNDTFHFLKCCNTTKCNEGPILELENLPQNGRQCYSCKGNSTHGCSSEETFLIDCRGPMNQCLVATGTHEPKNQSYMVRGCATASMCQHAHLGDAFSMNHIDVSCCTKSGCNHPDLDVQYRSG
T1 sequence (Q03405 23-305): as above

Binder | Kd [1] [nM] | koff [1] [s⁻¹] | kon [1] [M⁻¹ s⁻¹] | EC50 [2] [nM] | stoichiometry N [3]
VH 3 (VHH, Human single VH domain antibody (not a camelid VHH); Monomeric by SEC; also called clone 3; anti-uPAR VH 3; source: E.coli TopF expression system, purified on Ni-NTA columns) VHH: EVQLVESGGGLVQPGGSLRLSCAASGFTFSRYWMSWVRQAPGKALEWIGEINHSGSTNYNPSLKSLVTISRDNSKNTLYLQMNSLRAEDTATYYCARSLVPALSYYYYYGMDVWGQGTTVTVSS | 17.1 | 0.0014 | 79000 | 12.1 ± 0.8 | –
VH 115 (VHH, Human single VH domain antibody (not a camelid VHH); source: E.coli TopF expression system, purified on Ni-NTA columns) VHH: EVQLVESGGGLVQPGGSLRLSCKGSGFTFGDYAIGWVRQAPGQRLEWIGWINTNSGSPKYAQGFTGRFTISRDNSKNTLYLQMNSLRAEDTAVYYCATDVVVPWGQGSQVTVSS | 1.7 | 3.6e-05 | 21000 | 34.2 ± 3.5 | 2

More lines, main results first:

Kd [1] [nM] | koff [1] [s⁻¹] | kon [1] [M⁻¹ s⁻¹] | EC50 [2] [nM] | Binder | stoichiometry N [3]
9.6 | 0.0012 | 120000 | 64.3 ± 2.3 | VH-Fc 3 (Fc fusion, human, VH 3 domain, as m1; VH cloned into the pcDNA-IgG1 Fc vector; source: Expi293, transiently transfected, purified by protein A resin; not shown: Fc (human IgG1), C-terminal, kept) VH: EVQLVESGGGLVQPGGSLRLSCAASGFTFSRYWMSWVRQAPGKALEWIGEINHSGSTNYNPSLKSLVTISRDNSKNTLYLQMNSLRAEDTATYYCARSLVPALSYYYYYGMDVWGQGTTVTVSS | –
71.1 | 0.0024 | 33000 | 6.6 ± 0.2 | VH-Fc 115 (Fc fusion, human, VH cloned into the pcDNA-IgG1 Fc vector; source: Expi293, transiently transfected, purified by protein A resin; not shown: Fc (human IgG1), C-terminal, kept) VH: EVQLVESGGGLVQPGGSLRLSCKGSGFTFGDYAIGWVRQAPGQRLEWIGWINTNSGSPKYAQGFTGRFTISRDNSKNTLYLQMNSLRAEDTAVYYCATDVVVPWGQGSQVTVSS | 2
